Assay results reported in paper PMC9694023.

Target: T1, endogenous IRF7 of HEK293 cells (human (endogenous in HEK293)), Q92985
T1 chain: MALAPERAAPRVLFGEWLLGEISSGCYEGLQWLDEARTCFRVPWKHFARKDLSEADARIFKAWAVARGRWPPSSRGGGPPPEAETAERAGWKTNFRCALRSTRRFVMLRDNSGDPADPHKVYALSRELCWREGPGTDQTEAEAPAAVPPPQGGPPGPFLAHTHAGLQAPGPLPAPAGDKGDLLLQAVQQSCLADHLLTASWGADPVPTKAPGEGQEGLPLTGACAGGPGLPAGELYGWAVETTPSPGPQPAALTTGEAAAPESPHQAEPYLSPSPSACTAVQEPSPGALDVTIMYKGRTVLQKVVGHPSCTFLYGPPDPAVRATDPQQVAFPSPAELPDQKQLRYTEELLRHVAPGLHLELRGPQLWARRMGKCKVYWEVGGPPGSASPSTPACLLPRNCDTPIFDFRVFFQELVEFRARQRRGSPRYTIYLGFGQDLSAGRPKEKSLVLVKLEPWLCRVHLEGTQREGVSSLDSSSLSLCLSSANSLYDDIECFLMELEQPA
Experiment: native gel or EMSA
Conditions: remark: other sources report otherwise

B1: endogenous IRF7 of HEK293 cells, Q92985 1-503 (natural protein)
chain: T1 chain
  stoichiometry N: 2
